Assay results from publication PMC4520604, “Affinity Maturation of Monoclonal Antibody 1E11 by Targeted Randomization in CDR3 Regions Optimizes Therapeutic Antibody Targeting of HER2-Positive Gastric Cancer” (PLoS ONE, 2015).
Positions count from the first letter of the chain named. In names and notes the source's numbering stands.

What was measured:
Settings in all cases: both partners purified
HER2-ECD-His protein [1] = biological target: T1, HER2-ECD-His protein (Homo sapiens, UniProt P04626); experiment: SPR; k off analysis of Fab: HER2-ECD-His immobilised on CM5 by amine coupling at about 2,000 RU; Fab injected at 2 μg/mL, 50 μL/minute
T1 construct: human epidermal growth factor receptor 2 (HER2), extracellular region (ECD); The SPR methods name HER2-ECD-His; The ELISA legends say only 'HER2-ECD protein'; also called HER2-ECD protein; extracellular region (ECD) of HER2; source: Freestyle 293 system, secreted, purified (Ni-NTA)

HER2-ECD-His protein [2] = biological target: T1, HER2-ECD-His protein; experiment: SPR; k off analysis of IgG: antibody captured at 1 μg/mL by goat anti-human IgG (γ) immobilised on CM5; HER2-ECD-His injected at 160 nM
HER2-ECD-His protein [3] = biological target: T1, HER2-ECD-His protein; experiment: SPR; affinity: antibody captured at about 50 RU by goat anti-human IgG (γ) on CM5; HER2-ECD-His injected at 0 to 640 nM; fit to 1:1 (Langmuir) model
HER2-ECD-His protein [4] = biological target: T1, HER2-ECD-His protein; experiment: as above; remark: listed apart in the source

B1: hz1E11 Fab, T99HA mutant (Fab, V domains shown)
VH: EVQLVESGGGLVQPGGSLRLSCAASGFTFSSYTMSWVRQAPGKGLEWVAYISNGGGSTYYPDTVKGRFTISRDNAKNSLYLQMNSLRAEDTAVYYCARHLGGAASFDYWGQGTLVTVSS
VL: DIQMTQSPSSLSASVGDRVTITCLASQTIGTWLAWYQQKPGKAPKLLIYVATSLADGVPSRFSGSGSGTDFTLTISSLQPEDFATYYCQQLYSTPWTFGQGTKVEIK
notes: as the VH of m4 (hz1E11); numbers count on: Kabat; as the VL of m4 (hz1E11); Fab in the vector pComb3X; source: E. coli DH5α, periplasmic extract, purified (IMAC)
- fold increase of k off (against the parental Fab) (HER2-ECD-His protein [1]): 32 fold

B2: hz1E11 Fab, G97HA mutant (Fab, V domains shown)
VH: B1 VH with G101A, A103T
VL: B1 VL
notes: as the VH of m4 (hz1E11); numbers count on: Kabat; as the VL of m4 (hz1E11); Fab in the vector pComb3X; also called G97A; source: E. coli DH5α, periplasmic extract, purified (IMAC)
- fold increase of k off (against the parental Fab) (HER2-ECD-His protein [1]): 17 fold

B3: clone 1A12 (IgG) (antibody, V domains shown)
VH: B1 VH with A103T
VL: B1 VL with L91N, Y92A, S93Y, T94A
notes: as the VH of m4 (hz1E11); CDR-H3 HLGGTASFDY; as the VL of m4 (hz1E11); numbers count on: Kabat; IgG; also called L-1A12; source: Freestyle 293 system, purified (protein-A)
- koff (HER2-ECD-His protein [2]): 2.8e-05 s⁻¹
- Kd (HER2-ECD-His protein [3]): 1.9 nM
- koff (HER2-ECD-His protein [3]): 0.00012 s⁻¹
- kon (HER2-ECD-His protein [3]): 64000 M⁻¹ s⁻¹

B4: clone 1F11 (IgG) (antibody, V domains shown)
VH: B1 VH with A103T
VL: B1 VL with L91T, Y92A, S93F, T94S
notes: as the VH of m4 (hz1E11); CDR-H3 HLGGTASFDY; as the VL of m4 (hz1E11); numbers count on: Kabat; IgG; also called L-1F11; source: Freestyle 293 system, purified (protein-A)
- koff (HER2-ECD-His protein [2]): 5.89e-05 s⁻¹
- Kd (HER2-ECD-His protein [3]): 1.4 nM
- koff (HER2-ECD-His protein [3]): 0.00012 s⁻¹
- kon (HER2-ECD-His protein [3]): 90000 M⁻¹ s⁻¹

B5: L-1A12 + H-1B12 (IgG) (antibody, V domains shown)
VH: B1 VH with H99N, L100Y, A103T
VL: B1 VL with L91N, Y92A, S93Y, T94A
notes: as the VH of m4 (hz1E11); numbers count on: Kabat; as the VL of m4 (hz1E11); IgG; also called combination of the VH of 1B12 and VL of 1A12; source: Freestyle 293 system, purified (protein-A)
- koff (HER2-ECD-His protein [2]): 1.87e-05 s⁻¹

B6: L-1F11 + H-1B12 (IgG) (antibody, V domains shown)
VH: B1 VH with H99N, L100Y, A103T
VL: B1 VL with L91T, Y92A, S93F, T94S
notes: as the VH of m4 (hz1E11); numbers count on: Kabat; as the VL of m4 (hz1E11); IgG; source: Freestyle 293 system, purified (protein-A)
- koff (HER2-ECD-His protein [2]): 3.45e-05 s⁻¹

B7: L-1A12 + H-2A7 (IgG) (antibody, V domains shown)
VH: B1 VH with H99N, L100F, A103T
VL: B1 VL with L91N, Y92A, S93Y, T94A
notes: as for B6
- koff (HER2-ECD-His protein [2]): 2.59e-05 s⁻¹

B8: L-1F11 + H-2A7 (IgG) (antibody, V domains shown)
VH: B1 VH with H99N, L100F, A103T
VL: B1 VL with L91T, Y92A, S93F, T94S
notes: as for B6
- koff (HER2-ECD-His protein [2]): 4.5e-05 s⁻¹

B9: chimeric 1E11 (antibody, V domains shown)
VH: EVKLVESGGGLVQPGGSLKLSCAASGFTFSSYTMSWVRQTPEKRLEWVAYISNGGGSTYYPDTVKGRFTISRDNAKNTLYLQMSSLKSEDTAMYYCARHLGGTASFDYWGQGTTVTVSS
VL: DIQMTQSPASQSASLGESVTITCLASQTIGTWLAWYQQKPGKSPQLLIYVATSLADGVPSRFSGSGSGTKFSFKISSLQAEDFVSYYCQQLYSTPWTFGGGTKLELK
notes: VH of murine 1E11; VL of murine 1E11; Chimeric IgG; also called ch1E11; parental ch1E11; source: Freestyle 293 system, purified (protein-A)
- Kd (HER2-ECD-His protein [4]): 23 nM
